According to the DeepSol protein solubility set:

assay: soluble on expression in E. coli; label from the status in PepcDB or PDB records

Sequence	soluble on expression in E. coli
MSPLKPLYKLYEWYISRNLRRDRMPRHVAIIMDGNRRYSKLQGSMNPIEGHKKGIETLEKVLDWCVDLGIEIVTAYAFSTENFKRPEKEVKGLMKLFRENFEAIASNEKIHKNRVRVRAVGKLELLPEDVRRAIEIAEKSTEQYSDRLVNIAIGYDGRQEIVDATRKIAEDVKAGLIDPEDIDEDMINRNLYTAGLEDPHLIIRTSGEERLSGFLLWQSSYSELYFCDSLWPELRKVDFLRAIRSYQQRERRFGV	soluble
MSDIKHEKKLANMDTPGETTKSFENKLDEEIPDIEESDFINSPPFSDEIFSPEDSKQVEISELSKQAYSLLKGNSITEAINVFKKILELDPTNNYALVGLGDAERKNNKFNEAIKFYKQCLEHHPSNNYALFGLADCYKSMNQFPRAIAIWEEYLKFDDKNITVLTRVADAYRKTKEFEKAEKLYQKVLEKSPKNAYALIGLGHLNYDFKKYREALVYWEKVMESSGELVDIRILTSIGNCYRKMKLFDRGVYYFERALERSPDNFYGLFGLADCYRGLNQQYNSIVYWKKILELDPNNKVILTRIGDAYRSMNDFEKAKESYQKALDIDFDSYAMLGLAILCKLQQKYDQAITTLTHLKDTGDTNYNYRVYLELAQCYIEKKEKQKAIETLIDFQKLGIKNQTVSDLLFELTKNDH	not soluble
MADGVLAVSQEGFNTLQSYNVGEKYTADLWIQQGGLKSTASVVSFSVDKALLDSMNIADGTSYELLPADCYQLTKSSVDIPANERLLKGELTYDPAKIQELSGYDHLKYVLPLRATSSGMPFVSGRSVLLLGFKVSEPIVTIMNAGVEEINLAEVKELPVQIGVPFTNKWEISCRLESRQSVIDAYNTAHGTYFSMLPSDAYVTPETPILHSGVNQVTATYKLKDDILPGNYMLPVQIAEVTSDATIRADKDVYAAYSIIKEGDKLSKTDWKIVSFTTEEASGEGSNNGHAKHLIDGNIETFWHSRWQGGSDPLPYEIIIDMNHRVKIAQIELLPRGRGSNNPIKVVRFEASEDGTNWESIGQFGFTNQDAALKYYVKSSTARYIKLVIPDGVGNGTVAAIRELDVRGTVVNLEHHHHHH	soluble
MKTIGLLGGMSWESTIPYYRLINEGVKARLGGLHSASLVLHSVDFHDIEACQSAGDWDRAGEILAEAAVGLQQAGAEGIVLCTNTMHKVADAIAARCQVPFLHIADATGRAIAAKGQRRVALLGTRYTMEQTFYRGRLQEQFAIETLIPEADDRAQINQIIFDELCLGTFSEASRDYYLQTIAALAEQGAEGVIFGCTEIGLLVPAELSPLPVFDTAAIHAEDAVNFMLSAGPTPAA	not soluble
MRELQTLLISCLKQERISGSMFRVLGKVVNHVVCEMFKHQDIAWDGLRDYIVSQSKTKFQRAVYIFQCLTTPLEDDEFVIHVMENLLPEIRIRLNPPRDLLVDNSCWVLAFTGAFCATIHLREFPSQAESVKEIANKMIDSVRELVEIGIEVGLVRRAFRDLENIVKNLNKWNGTGS	soluble
MVVFGTTFFNFDSFIGKTDSIEIIGKSVFPYCYHNILPLLNDSGRYSLGDARRPLHETAVLVEDVVHTQLINLLQQAAEVSQLRGARVITPEDLLFLMRKDKKKLRRLLKYMFIRDYKSKIVKGIDEDDLLEDKLSGSNNANKRQKIAQDFLNSIDQTGELLAMFEDDEIDEVKQERMERAERQTRIMDSAQYAEFCESRQLSFSKKASKFRDWLDCSSMEIKPNVVAMEILAYLAYETVAQLVDLALLVRQDMVTKAGDPFSHAISATFIQYHNSAESTAACGVEAHSDAIQPCHIREAIRRYSHRIGPLSPFTNAYRRNGMAFLAC	not soluble
MGSDKIHHHHHHMSKLIETRGLTKKYPGVVALDHVDFDLEPGEVHVLFGENGAGKSTLISMLAGANAPSEGRLLLNGEEVQFESVADAQAKGIYTVFQEFSLIPTLTVAQNIFLGWELRFGPFLDHRAMRARAREMLAELGFDIDPAAIVAQLSRAQQQMVEITKAFHGDLNVLILDEPTASLTDREVDHLFEFVAKLKAQGVGIVYISHRIQEFERIAERVTVLRDGAVIGTVAMAETDEDALVEMMTGRAFDQIYPSITFSPGETLLEVSDLTAPGISGACFQVRRGEVLGVAGLVGSGKSRLFRAVMGLTPVQSGSIRFKGADITNAPTRKIITRGMYYLSPDRKAEGLDLAKNARDNLAVNIISGQRHSGHGPFIPWGAVNARIDQISDHVELHAGYRSKPTSQLSGGNQQKVLFGKCFGQDADLIIFDEPTVGVDMGTRAALYLLIKELAEAGKAIVVISSDLPEAMNIAHRLLVLAHGTITARLSADEMSEDTVLKYFFDETGASQ	not soluble
GPMATESPNSVQKIVVHLRATGGAPILKQSKFKVSGSDKFANVIDFLRRQLHSDSLFVYVNSAFSPNPDESVIDLYNNFGFDGKLVVNYACSMAWG	soluble
MGSDKIHHHHHHGFESDNANKAGYTPELQEYDLQKYVLNLGVMQQGIYFNYDWGRGTDWTFQTIQNLGHDMFAGYFHDMNNSFNDKNSVYALNDGWTGSAWTYTYGYIMTAAQKSEKINQEQKGLLGVTKILKVELMHRIADTYGPIVYTKFGQEEGDNVDSQEAAYRQFFKDLDEGVKLINEYKKDNAALEPFAAADILMPAGKRTLSQWVKFANSLRLRLAIRVSMSAPDLARAEVAKAMDATAGGVLESADETVAVSTESGYKNPLGTVNEGWGEVFMGATMESVLVGYNDPRLIKYYSKAEGGDIKDEKGNLIIAERNKIAGTYKGVPQGTGVTVKDENRYRLHSKSTITKQTDAILMTAAEVWFLRAEAALRGFTSENVKDCYEKGITVSCQQWGVNVGDYLTSDATPSDYVDAFEAKYDVKALIKVTPKWDGGASPEEQLERILTQKWIACYPEGYEAWTEQRRTGYPQLFKVFVNNSGGAIDTNIRIRRLPYPSDIQKNNPTQYSALKKALGGEDNGGTRLWWDTGRNF	not soluble
EVQLQQSGAELVRPGASVKLSCTASGFNIKDDFMHWVKQRPEQGLEWIGRIDPANDNTKYAPKFQDKATIIADTSSNTAYLQLSSLTSEDTAVYYCARREVYSYYSPLDVWGAGTTVTVPSGS	soluble
MTVYHFVGIKGTGMSSLAQILHDMKHTVQGSDYEKRFFTQTALEKRNISILPFDKSNVKEGQVIIAGNAFPDTHEEIVAAKELNIPVHRYHHFLGDLMNQYTSVAVTGAHGKTSTTGLLAHVMQGAHPTSYLIGDGTGHGVENSKYFVFEACEYRRHFLSYNPDYAIMTNIDFDHPDYFTDINDVFSAFQEMALQVKKGIIACGDDEELQKIQAKVPVIFYGFGEDNDFQARNIQKRTDGTIFDVFVRNTYYDTFKITGYGNHSVLNALAVIALCHYENVDVEAVKHQLTTFEGVKRRFNEKPMGEQVIIDDYAHHPTEINATIEAARQKHPEREIVAVFQPHTFSRTEKFLDEFAESLSKADQVYLCDIFGSARENKGELTIEDLQKRIDGAELITDTTTDVLKKHKNGVLIFMGAGDIQKFEAAYVKEVQVAEK	not soluble
MDDGDTADDIMDATYRALCTHGYADLTMQDIADESDKSKAALHYHYDSKHDLLCAFLEYLYDGFVDRIEDPAGETPHERLLSLIDSVLDKPDDGSEEFGTAILEIRAHAPYEPGFRERLTKFDDYLVDELEVILEDGIADGTFKSDLDADETAQFIVTVLTGAATERVTTGRPVKCTRRMLTEYVETHLLDGQQEVTA	not soluble
DNFNQQKKKFGGQDIFMTEEQKKYYNAMKKLGSKKPQKPIPRPANKFQGMVFD	soluble
MQIEKIRDQKMKAVRVKKLSKLADEITINISGAKNALLHLIFASLIPDTKTKFTNVPITLLDYKGAKEILENVGAKVIEKDEEVTIDTAAISNETLELCGEMTSKTRCSLMLLGSLLKKKGRVKIGFPGGCSFSEKRPFDIHLNGLEALGAEVKLADDHIEVIYKEEKNAEFKMPFPSVGATMNLLMYAVTGNSEIVLENVALEPEVVTLIDYLNQCGANIDFDADSRKIKILGIMRLNGCEFEIIFDRIQAMTYAAMAYLYKTNVTITNINTQDTYSIKKPLEKLTNAGAKWEYNQANRSIKFFGKDSCIKGVDIIAAPFPHFPTDLQPIYAVMLFMANSSSTIQDTVYPERINYVYQIRKMGFNISIDNTLIKINPLKNLNDIRPAVMSVKDLRAGMACLMAGSLLDEFSTINNAHQIFRGYNNLIENMSHFMRIEILNDNV	not soluble
MDNKNFQSKTGFNLENTYLTLPNIFFSEQNPKGSKNPKLIKFNTSLAEELGLNEEVLNSDFGLNIFAGNETFPGIVPIAQAYAGHQFGHFTMLGDGRALLLGEHVTKDCKRYDVQLKGSGRTIYSRGGDGKAALAPMLREYIISEGMHGLGIPTTRSLAVVSTGEEVLRERFEQGAILTRIASSHIRVGTFAYAAQWGTLEDLKSLADYTIKRHFPNIADNENKYILFLEEVINRQAELIVKWQSVGFIHGVMNTDNMVISGETIDYGPCAFMDTYDTNTVFSSIDYAGRYAYGNQPNMALWNLARFSEALLPLLNPNLDEAVNIAKKSISNFSKLYKKYWFNKMRTKLGLFTEKENDELLIEGLLSTMQKYEADFTNTFVSLTLNKFEDEKVFSSDEFKTWYALWQNRLKEENRPQEEVRNLMMNNNPYIIPRNHLVEEALKNAEKGDFTFMDNLLEALKNPYSYSKDLEKYTKLPEKSDTPYVTYCGTLEHHHHHH	not soluble
MTKLQLKYRELKIISVIAASENISHAATVLGIAQANVSKYLADFESKVGLKVFDRTTRQLMLTPFGTALLPYINDMLDRNEQLNNFIADYKHEKRGRVTIYAPTGIITYLSKHVIDKIKDIGDITLSLKTCNLERNAFYEGVEFPDDCDVLISYAPPKDESLVASFITQYAVTAYASQRYLEKHPISRPDELEHHSCILIDSMMIDDANIWRFNVAGSKEVRDYRVKGNYVCDNTQSALELARNHLGIVFAPDKSVQSDLQDGTLVPCFQQPYEWWLDLVAIFRKREYQPWRVQYVLDEMLREIRHQLAQSQQLRPEQAAESED	soluble
VASKAIFYHAGCPVCVSAEQAVANAIDPSKYTVEIVHLGTDKARIAEAEKAGVKSVPALVIDGAAFHINFGAGIDDLKGS	soluble
